{"source": "patent US20200132691A1", "about": "“DETECTION AND TARGETING OF TUMOR-PROMOTING NEUTROPHILS” (THE GENERAL HOSPITAL CORPORATION, priority 2017, published 2020)", "key": {"Ocn+ cells": {"system": "Ocn+ cells", "experiment": "In vivo osteoblast depletion with diphtheria toxin", "parameters": "species or system mouse", "details": "OcnCre;Dtr or OcnCre;Dtr/Yfp mice; flow cytometry, immunohistochemistry, in situ microscopy, bone histomorphometry", "method": "(§1) Ocn^Cre;Dtr, Ocn^Cre;Dtr/Yfp and control mice lacking either transgene were treated i.p. with DT (100 μl; 20 μg/kg, Sigma-Aldrich) every other day for 9 days with a total of five injections per mouse. In some experiments, osteoblast depletion was performed for 3 consecutive days using DT. For both DT treatment protocols, osteoblast depletion was verified. Body weight was monitored to control for DT-induced toxicity. Osteoblast depletion was verified using histological evaluation of femurs, IHC for osteocalcin and ex vivo whole mount immunofluorescence of Ocn^Cre;Dtr/Yfp mice."}, "[1]": {"experiment": "Body weight monitoring for DT-induced toxicity", "type": "in vivo, mouse", "details": "DT-treated mice", "method": "as §1"}, "neutrophils": {"system": "neutrophils", "experiment": "Neutrophil counts in wild-type mice treated with DT", "details": "bone marrow"}, "splenocytes": {"system": "splenocytes", "experiment": "In vitro assay of DT-mediated direct effects on hematopoietic cells (splenocytes)"}}}
{"substance": "diphtheria toxin [DT]", "values": [{"measurement": "Ocn+ cell numbers", "setting": "Ocn+ cells", "value": "significantly reduced"}, {"measurement": "body weight", "setting": "[1]", "value": "did not affect"}, {"measurement": "neutrophil counts", "setting": "neutrophils", "value": "maintained"}, {"measurement": "viability of hematopoietic cells", "setting": "splenocytes; DT concentration used, in vitro DT titration and in vivo cellular staining by flow cytometry", "value": "did not affect the viability"}, {"measurement": "killing of CD11b+ myeloid cells", "setting": "splenocytes; cells from OcnCre;Dtr mice, in vitro", "value": "not killed"}, {"measurement": "killing of DTR+ cells", "setting": "splenocytes; positive control, in vitro", "value": "ability to kill"}]}
